Data on 17 molecules can be found in patent publication US12618845B2, “Methods and compositions for protein sequencing” (Quantum-Si Incorporated, priority 2018, dated 2026).

Numbering of substitutions follows the chain as printed. Names and notes keep the numbering of the source.

The test system of test [1] is N-terminal amino acid of peptides. The test can be described thus: Single-molecule terminal amino acid discrimination by labeled affinity reagent (dwell time analysis). Type of test: binding. As to conditions: for Terminal amino acid recognition: single molecule traces, dwell time analysis. The method, then:
An adaptor protein involved in proteolytic pathways was identified as a potential candidate for use as a labeled affinity reagent for detecting N-terminal aromatic residues. The adaptor protein, ClpS2 from an α-proteobacterium (A. tumefaciens), was expressed and labeled at an exposed cysteine residue. […] The exposed cysteine residue was labeled with a rhodamine dye (ATTO 532).
Peptides having different N-terminal aromatic residues were prepared to test whether the labeled ClpS2 was capable of N-terminal amino acid discrimination at the single molecule level.
FIG. 19C is a plot showing discriminant pulse durations (time duration of signal peaks) among the three N-terminal residues when reversibly bound by labeled ClpS2. FIG. 19D is a plot showing discriminant interpulse durations (time duration between signal pulses) among the three N-terminal residues. […] Mean pulse duration for the different N-terminal residues is visualized by histograms (A)-(B) and layered histogram (C).

Test [2] deals with amino acid at a terminal position of a polypeptide. As to conditions: amino acid identity at a terminal position of a polypeptide; phospho-Y also at an internal position; cited from earlier work.
Test [3] has as its system immobilized peptide FYPLPWPDDDY with N-terminal phenylalanine. The test can be described thus: Simultaneous single-molecule recognition with differentially labeled recognition molecules. Type of test: binding. As to conditions: 500 nM each binder. The method, then: Single peptide molecules containing N-terminal phenylalanine ([…] (SEQ ID NO: 79)) were immobilized in sample wells of a chip. Buffer containing 500 nM each of at ClpS1 (Agrobacterium tumefaciens ClpS1; sequence provided in Table 1) and at ClpS2-V1 (Agrobacterium tumefaciens ClpS2 variant 1; sequence provided in Table 1) was added, where at ClpS1 and at ClpS2-V1 were labeled with Cy3 and Cy3B, respectively. Since the intensity of Cy3B is higher than Cy3, at ClpS2-V1 binding events were readily distinguishable from at ClpS1 binding events.
The pulse duration distributions were distinct for each binder (FIG. 24B) and corresponded to their kinetic profiles as observed in single-binder experiments. Mean pulse duration was 1.3 seconds for at ClpS1 and 1.0 seconds for at ClpS2-V1 (FIG. 24C). Pulse rate was also distinct: 8.1 pulses/min for at ClpS1 and 14.1 pulses/min for at Clp2-V1 (FIG. 24C). Thus, when more than one recognition molecule is included for dynamic recognition of immobilized peptides, the binding characteristics of each recognition molecule (including pulse duration, interpulse duration, and pulse rate) can simultaneously provide information about peptide sequence.

Test [4] deals with fluorescently-labeled peptides with N-terminal phospho-tyrosine, tyrosine or phospho-serine (Homo sapiens, UniProt P06241, C239S/C240S/C246S/K204L/S186A/T181V). The test can be described thus: Single-molecule recognition of post-translationally modified amino acids by immobilized SH2 domain variant.

B1: GID4: GID4 evaluated as a potential reagent for proline recognition; species not stated at the place (protein, UniProt Q8IVV7 1-300, looked up)
Glucose-induced degradation …: MCARGQVGRGTQLRTGRPCSQVPGSRWRPERLLRRQRAGGRPSRPHPARARPGLSLPATLLGSRAAAAVPLPLPPALAPGDPAMPVRTECPPPAGASAASAASLIPPPPINTQQPGVATSLLYSGSKFRGHQKSKGNSYDVEVVLQHVDTGNSYLCGYLKIKGLTEEYPTLTTFFEGEIISKKHPFLTRKWDADEDVDRKHWGKFLAFYQYAKSFNSDDFDYEELKNGDYVFMRWKEQFLVPDHTIKDISGASFAGFYYICFQKSAASIEGYYYHRSSEWYQSLNLTHVPEHSAPIYEFR
In the case of B1, the “Terminal amino acid recognition” value in test [1] was “proline recognition”.

B2: Agrobacterium tumifaciens ClpS1: amino acid recognition protein, SEQ ID NO: 4 (protein, listed as Agrobacterium tumifaciens)
chain: MIAEPICMQGEGDGEDGGTNRGTSVITRVKPKTKRPNLYRVLLLNDDYTPMEFVIHILERFFQKDREAATRIMLHVHQHGVGECGVFTYEVAETKVSQVMDFARQHQHPLQCVMEKK
For the molecule B2, the “Binding Pref.” value in test [2] is “F, W, Y, L”. Also, in test [1], the “Terminal amino acid recognition” value is “differentiable recognition of phenylalanine, leucine, tryptophan, and tyrosine”. Further, in test [3], the Mean pulse duration came out at 1.3 s and the Pulse rate was 8.1 pulses/min.

B3: Agrobacterium tumifaciens ClpS1 C7S C84S C112S: amino acid recognition protein, SEQ ID NO: 7 (protein, listed as Agrobacterium tumifaciens)
chain: B2 chain with C7S, C84S, C112S
Take B3: the “Binding Pref.” value in test [2] is “F, W, Y, L”.

B4: Agrobacterium tumifaciens ClpS1 C7S: amino acid recognition protein, SEQ ID NO: 6 (protein, listed as Agrobacterium tumifaciens)
chain: B2 chain with C7S
As for B4, in test [2], the “Binding Pref.” value is recorded as “F, W, Y, L”.

B5: Plasmodium falciparum ClpS: amino acid recognition protein, SEQ ID NO: 15 (protein, listed as Plasmodium falciparum)
chain: MFKDLKPFFLCIILLLLLIYKCTHSYNIKNKNCPLNFMNSCVRINNVNKNTNISFPKELQKRPSLVYSQKNFNLEKIKKLRNVIKEIKKDNIKEADEHEKKEREKETSAWKVILYNDDIHNFTYVTDVIVKVVGQISKAKAHTITVEAHSTGQALILSTWKSKAEKYCQELQQNGLTVSIIHESQLKDKQKK
Consider B5, for which, in test [2], the “Binding Pref.” value is on record as “F, W, Y, L,”.

B6: UBR-box domain from Homo sapiens UBR2: amino acid recognition protein, SEQ ID NO: 33 (protein, listed as Homo sapiens)
chain: MGPLGSLCGRVFKVGEPTYSCRDCAVDPTCVLCMECFLGSIHRDHRYRMTTSGGGGFCDCGDTEAWKEGPYCQKHE
Turning to B6, the “Binding Pref.” value in test [2] was “K, R, H”.

B7: Synechococcus elongatus ClpS2: amino acid recognition protein, SEQ ID NO: 11 (protein, listed as Synechococcus elongatus)
chain: MSPQPDESVLSILGVPRPCVKKRSRNDAFVLTVLTCSLQAIAAPATAPGTTTTRVRQPYPHFRVIVLDDDVNTFQHVAECLLKYIPGMTGDRAWDLTNQVHYEGAATVWSGPQEQAELYHEQLRREGLTMAPLEAA
Regarding B7, the “Binding Pref.” value in test [2] was “F, W, Y, L, and V, I”. Further, in test [1], the “Terminal amino acid recognition” value is reported as “leucine recognition”.

B8: Saccharomyces cerevisiae GID10: amino acid recognition protein, SEQ ID NO: 31 (protein, listed as Saccharomyces cerevisiae)
chain: MTSLNIMGRKFILERAKRNDNIEEIYTSAYVSLPSSTDTRLPHFKAKEEDCDVYEEGTNLVGKNAKYTYRSLGRHLDFLRPGLRFGGSQSSKYTYYTVEVKIDTVNLPLYKDSRSLDPHVTGTFTIKNLTPVLDKVVTLFEGYVINYNQFPLCSLHWPAEETLDPYMAQRESDCSHWKRFGHFGSDNWSLTERNFGQYNHESAEFMNQRYIYLKWKERFLLDDEEQENQMLDDNHHLEGASFEGFYYVCLDQLTGSVEGYYYHPACELFQKLELVPTNCDALNTYSSGFEIA
Turning to B8, the “Binding Pref.” value in test [2] is reported as “P, M, V”.

B9: Thermosynechococcus elongatus ClpS: amino acid recognition protein, SEQ ID NO: 12 (protein, listed as Thermosynechococcus elongatus)
chain: MPQERQQVTRKHYPNYKVIVLNDDFNTFQHVAACLMKYIPNMTSDRAWELTNQVHYEGQAIVWVGPQEQAELYHEQLLRAGLTMAPLEPE
For the molecule B9, the “Binding Pref.” value in test [2] is listed as “F, W, Y, L”. The Mean pulse duration in test [1] (terminal leucine residue of polypeptides) is 0.71 s.

B10: UBR-box domain from Homo sapiens UBR1: amino acid recognition protein, SEQ ID NO: 32 (protein, listed as Homo sapiens)
chain: MGPLGSLCGRVFKSGETTYSCRDCAIDPTCVLCMDCFQDSVHKNHRYKMHTSTGGGFCDCGDTEAWKTGPFCVNHEP
For B10, the “Binding Pref.” value in test [2] is “K, R, H”.

B11: Synechococcus elongatus ClpS1: amino acid recognition protein, SEQ ID NO: 10 (protein, listed as Synechococcus elongatus)
chain: MAVETIQKPETTTKRKIAPRYRVLLHNDDFNPMEYVVMVLMQTVPSLTQPQAVDIMMEAHTNGTGLVITCDIEPAEFYCEQLKSHGLSSSIEPDD
On to B11, for which, in test [2], the “Binding Pref.” value is “F, W, Y”.

B12: Escherichia coli leucyl/phenylalanyl-tRNA-protein transferase: amino acid recognition protein, SEQ ID NO: 16 (protein, listed as Escherichia coli)
chain: MRLVQLSRHSIAFPSPEGALREPNGLLALGGDLSPARLLMAYQRGIFPWFSPGDPILWWSPDPRAVLWPESLHISRSMKRFHKRSPYRVTMNYAFGQVIEGCASDREEGTWITRGVVEAYHRLHELGHAHSIEVWREDELVGGMYGVAQGTLFCGESMFSRMENASKTALLVFCEEFIGHGGKLIDCQVLNDHTASLGACEIPRRDYLNYLNQMRLGRLPNNFWVPRCLFSPQELE
As for B12, the “Binding Pref.” value in test [2] is on record as “K, R”.

B13: Agrobacterium tumifaciens ClpS2 variant 1 C72S: amino acid recognition protein, SEQ ID NO: 5 (protein, listed as Agrobacterium tumifaciens)
chain: MSDSPVDLKPKPKVKPKLERPKLYKVMLLNDDYTPMSFVTVVLKAVFRMSEDTGRRVMMTAHRFGSAVVVVSERDIAETKAKEATDLGKEAGFPLMFTTEPEE
Regarding B13, the “Binding Pref.” value in test [2] is on record as “F, W, Y”.

B14: H. sapiens Fyn SH2 domain triple mutant superbinder: amino acid recognition protein, SEQ ID NO: 23 (protein, listed as Homo sapiens)
chain: MGAMDSIQAEEWYFGKLGRKDAERQLLSFGNPRGTFLIRESETVKGAYALSIRDWDDMKGDHVKHYLIRKLDNGGYYITTRAQFETLQQLVQHYSERAAGLSSRLVVPSHK
B14: the “Binding Pref.” value in test [2] is “phospho-Y”. In addition, the “Peptide binding by the immobilized protein” value in test [4] (peptide with N-terminal and penultimate unmodified tyrosines (YY)) is given as “not detected”; in test [4] (peptide with N-terminal phospho-serine), “not detected”; in test [4] (peptide with N-terminal phospho-tyrosine), “detected”; in test [4] (peptide with N-terminal unmodified tyrosine (Y)) it was “not detected”.

B15: Escherichia coli ClpS: amino acid recognition protein, SEQ ID NO: 13 (protein, listed as Escherichia coli)
chain: MGKTNDWLDFDQLAEEKVRDALKPPSMYKVILVNDDYTPMEFVIDVLQKFFSYDVERATQLMLAVHYQGKAICGVFTAEVAETKVAMVNKYARENEHPLLCTLEKA
In the case of B15, the “Binding Pref.” value in test [2] was “F, W, Y, L”.

B16: Escherichia coli ClpS M40A: amino acid recognition protein, SEQ ID NO: 14 (protein, listed as Escherichia coli)
chain: B15 chain with M40A
B16: in test [2], the “Binding Pref.” value is “F, W, Y, L”.

B17: Saccharomyces cerevisiae UBR1: amino acid recognition protein, SEQ ID NO: 18 (protein, listed as Saccharomyces cerevisiae)
chain: MGSVHKHTGRNCGRKFKIGEPLYRCHECGCDDTCVLCIHCFNPKDHVNHHVCTDICTEFTSGICDCGDEEAWNSPLHCKAEEQ
For the molecule B17, the “Binding Pref.” value in test [2] is listed as “K, R, H”.
